Measurements reported in the Human Domainome abundance scans (Beltran et al. 2025).

B1: Zinc finger MYM-type protein 3, residues 589 to 668; numbered along this chain, Q14202 (parent)
chain: LSCHYCHSLFSGKPEVLDWQDQVFQFCCRDCCEDFKRLRGVVSQCEHCRQEKLLHEKLRFSGVEKSFCSEGCVLLYKQDF

Variants of: B1
Assay: abundance fitness (aPCA) (normalised: wild type 0, dead -1); higher = more abundant; growth selection in yeast, the domain comes from the species named
Conditions: Homo sapiens

Abundance fitness, by site and new letter:
R39: E -0.159; C 0.272; L -0.282; M 0.032; Q 0.288; A -0.417; K -0.146; G 0.424
L38: E 0.302; V 0.013; T 0.264; Y -0.041; C 0.11; S 0.05; R 0.087; I 0.063; W 0.243; P 0.062
K36: I -0.313; C -0.294; E -0.01; W -0.181; G -0.019; M 0.229; P -0.615; H -0.089; A -0.077; Y -0.561; N -0.251; T -0.011; L -0.101; Q 0.034; F -0.088; S -0.048; R -0.077
D34: A 0.064; P -0.384; E -0.01; K -0.008; S -0.164; Y 0.105; Q -0.136; T -0.178; V -0.079; W -0.1; R -0.093; F -0.192; G 0.024; H -0.057; I -0.18; M 0.17
S43: C -0.062; Q -0.339; V 0.286; L -0.576; F -0.144; P -0.496; W -0.889; G 0.59; A -0.076; M 0.105; R -0.174; D -0.235
C31: G -0.8; W -1.26; T -1.02; R -0.901; P -1.02; Q -0.668; M -0.778; I -1.02; S -0.986; V -1.14
F35: K -0.529; C -0.467; I -0.624; H -0.219; T -0.607; Y -0.177; R -0.726; S -0.411; G -0.317; P -0.842; A -0.079; E -0.157; D -0.549; M -0.071; N -0.924; Q -0.421; L -0.641; V -0.587; W -0.118
R37: M -0.086; V 0.097; E -0.084; C -0.374; W -0.065; S 0.123; G -0.045; L 0.095; A 0.057; D -0.238; Q 0.254; K -0.343; P -0.097
V42: M 0.422; R -0.085; T 0.388; G -0.265; E -0.041; Q -0.203; P 0.176; W -0.01
C32: A -0.026; Q -0.08; V 0.038; N -0.239; D -0.521; Y 0.067; S -0.227; T -0.108; F -0.237; P -0.574; W -0.403; E -0.203; I -0.113; K 0.157; G -0.253; L -0.027; R -0.176; M 0.214
V41: R 0.003; N 0.317; T -0.243; I 0.195; E 0.079; A -0.208; L -0.181; G 0.056; K 0.398
E33: W -0.254; D 0.072; H 0.124; Q -0.038; C -0.151; Y -0.173; L -0.171; A -0.037; T -0.093; V -0.081; G -0.157; P -0.811; K -0.353; N -0.018; R -0.193; F -0.103
Q44: F 1.01; D 0.204; M 0.576; P 0.818; C 0.397; L 0.854; K 1.04; I 0.547; G 0.185; E 0.49; A 0.702
